B1: DNA polymerase IV, Q97W02 (parent)
chain: MIVLFVDFDYFYAQVEEVLNPSLKGKPVVVCVFSGRFEDSGAVATANYEARKFGVKAGIPIVEAKKILPNAVYLPMRKEVYQQVSSRIMNLLREYSEKIEIASIDEAYLDISDKVRDYREAYNLGLEIKNKILEKEKITVTVGISKNKVFAKIAADMAKPNGIKVIDDEEVKRLIRELDIADVPGIGNITAEKLKKLGINKLVDTLSIEFDKLKGMIGEAKAKYLISLARDEYNEPIRTRVRKSIGRIVTMKRNSRNLEEIKPYLFRAIEESYYKLDKRIPKAIHVVAVTEDLDIVSRGRTFPHGISKETAYSESVKLLQKILEEDERKIRRIGVRFSKFIEAIGLDKFFDT

Variants of: B1
Details: Saccharolobus solfataricus (strain ATCC 35092 / DSM 1617 / JCM 11322 / P2); pH 7.5; Thermal; CD; Na3PO4; NaCl MgCl2 50000 5000; structure 2RDI; whole UniProt chain shown

Row | Variant | Tm | unfolding enthalpy (calorimetric)
1 | MIVLFVDFDYFYAQVEEVLNPSLKGKPVVVCVFSGRFEDSGAVATANYEARKFGVKAGIPIVEAKKILPNAVYLPMRKEVYQQVSSRIMNLLREYSEKIAIASIDEAYLDISDKVRDYREAYNLGLEIKNKILEKEKITVTVGISKNKVFAKIAADMAKPNGIKVIDDEEVKRLIRELDIADVPGIGNITAEKLKKLGINKLVDTLSIEFDKLKGMIGEAKAKYLISLARDEYNAPIRTAVRKSIGRIVTMKRNSRNLEEIKPYLFRAIEESYYKLDKRIPKAIHVVAVTEDLDIVSRGRTFPHGISKETAYSESVKLLQKILEEDERKIRRIGVRFSKFIEAIGLDKFFDT [E100A E235A R240A] | 88.3 °C | 193 kcal/mol
2 | MIVLFVDFDYFYAQVEEVLNPSLKGKPVVVCVFSGRFEDSGAVATANYEARKFGVKAGIPIVEAKKILPNAVYLPMRKEVYQQVSSRIMNLLREYSEKIAIASIDEAYLDISDKVRDYREAYNLGLEIKNKILEKEKITVTVGISKNAVFAKIAADMAKPNGIKVIDDEEVKRLIRELDIADVPGIGNITAEKLKKLGINKLVDTLSIEFDKLKGMIGEAKAKYLISLARDEYNEPIRTRVRKSIGRIVTMKRNSRNLEEIKPYLFRAIEESYYKLDKRIPKAIHVVAVTEDLDIVSRGRTFPHGISKETAYSESVKLLQKILEEDERKIRRIGVRFSKFIEAIGLDKFFDT [E100A K148A] | 89.4 °C | 135 kcal/mol
3 | MIVLFVDFDYFYAQVEEVLNPSLKGKPVVVCVFSGRFEDSGAVATANYEARKFGVKAGIPIVEAKKILPNAVYLPMRKEVYQQVSSRIMNLLREYSEKIAIASIDEAYLDISDKVRDYREAYNLGLEIKNKILEKEKITVTVGISKNAVFAKIAADMAKPNGIKVIDDEEVKRLIRELDIADVPGIGNITAEKLKKLGINKLVDTLSIEFDKLKGMIGEAKAKYLISLARDEYNAPIRTAVRKSIGRIVTMKRNSRNLEEIKPYLFRAIEESYYKLDKRIPKAIHVVAVTEDLDIVSRGRTFPHGISKETAYSESVKLLQKILEEDERKIRRIGVRFSKFIEAIGLDKFFDT [E100A K148A E235A R240A] | 90 °C | 163 kcal/mol
4 | MIVLFVDFDYFYAQVEEVLNPSLKGKPVVVCVFSGRFEDSGAVATANYEARKFGVKAGIPIVEAKKILPNAVYLPMRKEVYQQVSSRIMNLLREYSEKIEIASIDEAYLDISDKVRDYREAYNLGLEIKNKILEKEKITVTVGISKNAVFAKIAADMAKPNGIKVIDDEEVKRLIRELDIADVPGIGNITAEKLKKLGINKLVDTLSIEFDKLKGMIGEAKAKYLISLARDEYNAPIRTAVRKSIGRIVTMKRNSRNLEEIKPYLFRAIEESYYKLDKRIPKAIHVVAVTEDLDIVSRGRTFPHGISKETAYSESVKLLQKILEEDERKIRRIGVRFSKFIEAIGLDKFFDT [K148A E235A R240A] | 90.3 °C | 172 kcal/mol
5 | MIVLFVDFDYFYAQVEEVLNPSLKGKPVVVCVFSGRFEDSGAVATANYEARKFGVKAGIPIVEAKKILPNAVYLPMRKEVYQQVSSRIMNLLREYSEKIEIASIDEAYLDISDKVRDYREAYNLGLEIKNKILEKEKITVTVGISKNKVFAKIAADMAKPNGIKVIDDEEVKRLIRELDIADVPGIGNITAEKLKKLGINKLVDTLSIEFDKLKGMIGEAKAKYLISLARDEYNAPIRTAVRKSIGRIVTMKRNSRNLEEIKPYLFRAIEESYYKLDKRIPKAIHVVAVTEDLDIVSRGRTFPHGISKETAYSESVKLLQKILEEDERKIRRIGVRFSKFIEAIGLDKFFDT [E235A R240A] | 90.3 °C | 125 kcal/mol
6 | MIVLFVDFDYFYAQVEEVLNPSLKGKPVVVCVFSGRFEDSGAVATANYEARKFGVKAGIPIVEAKKILPNAVYLPMRKEVYQQVSSRIMNLLREYSEKIEIASIDEAYLDISDKVRDYREAYNLGLEIKNKILEKEKITVTVGISKNKVFAKIAADMAKPNGIKVIDDEEVKRLIRELDIADVPGIGNITAEKLKKLGINKLVDTLSIEFDKLKGMIGEAKAKYLISLARDEYNEPIRTAVRKSIGRIVTMKRNSRNLEEIKPYLFRAIEESYYKLDKRIPKAIHVVAVTEDLDIVSRGRTFPHGISKETAYSESVKLLQKILEEDERKIRRIGVRFSKFIEAIGLDKFFDT [R240A] | 96.5 °C | 93 kcal/mol
